Results published in patent publication US20180319875A1 (ANN AND ROBERT H LURIE CHILDREN S HOSPITAL OF CHICAGO, published 2018).

Experiments:
[1] = molecular target: T1, Recombinant human Cripto-1 (rhCripto-1-1) (human, UniProt P13385 31-172, limits assumed); experiment: SPR; the curves are labelled Nodal 10nM, 25nM, 50nM and 100nM, so Nodal is the injected molecule (the legend paragraph 37 words panel B as Cripto to Nodal)
T1 construct: Bought protein
T1 sequence (looked up): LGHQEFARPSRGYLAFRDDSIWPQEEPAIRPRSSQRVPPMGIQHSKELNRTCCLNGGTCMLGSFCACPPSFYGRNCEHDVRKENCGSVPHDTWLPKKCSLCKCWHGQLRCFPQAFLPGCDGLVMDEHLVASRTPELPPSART

[2] = molecular target: T1, Recombinant human Cripto-1 …; experiment: SPR, average of two formats (Nodal to Cripto and Cripto to Nodal)
[3] = molecular target: T1, Recombinant human Cripto-1 …; experiment: SPR; the curves are labelled hrCripto 4nM, 8nM, 16nM and 32nM, so Cripto-1 is the injected molecule (the legend paragraph 37 words panel A as Nodal to Cripto)

Kd [1]: 5.8 nM
Kd [2]: ~4 nM
Kd [3]: 3.7 nM
B1: Recombinant human Nodal protein (rhNodal, E. coli derived His238-Leu347 with an N-terminal Met) (ligand)
chain: MHHLPDRSQLCRKVKFQVDFNLIGWGSWIIYPKQYNAYRCEGECPNPVGEEFHPTNHAYIQSLLKRYQPHRVPSTCCAPVKTKPLSMLYVDNGRVLLDHHKDMIVEECGCL
notes: range 238-347; also called full length Nodal; rNodal
